Measurements reported in publication PMC9482650, “Quantitative fragmentomics allow affinity mapping of interactomes” (Nature Communications, 2022).

T1: GRIP1_3, Q9Y3R0
T1 sequence (Q9Y3R0 247-346, limits assumed, looked up): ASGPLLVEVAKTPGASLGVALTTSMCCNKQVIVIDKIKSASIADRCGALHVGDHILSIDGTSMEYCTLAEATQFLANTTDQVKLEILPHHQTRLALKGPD

T2: SNTB1, Q13884
T2 sequence (Q13884 107-205, limits assumed, looked up): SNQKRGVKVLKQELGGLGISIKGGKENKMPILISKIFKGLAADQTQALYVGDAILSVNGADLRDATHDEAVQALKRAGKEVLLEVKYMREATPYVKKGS

T3: MPP7, Q5T2T1
T3 sequence (Q5T2T1 134-230, limits assumed, looked up): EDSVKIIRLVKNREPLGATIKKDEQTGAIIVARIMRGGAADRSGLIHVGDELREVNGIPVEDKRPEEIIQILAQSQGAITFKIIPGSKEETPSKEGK

T4: SYNJ2BP, P57105
T4 sequence (P57105 8-110, limits assumed, looked up): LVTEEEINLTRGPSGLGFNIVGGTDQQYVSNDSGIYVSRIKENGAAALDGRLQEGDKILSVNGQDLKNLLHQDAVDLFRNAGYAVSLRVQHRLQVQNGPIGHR

T5: HTRA3, P83110
T5 sequence (P83110 354-453, limits assumed, looked up): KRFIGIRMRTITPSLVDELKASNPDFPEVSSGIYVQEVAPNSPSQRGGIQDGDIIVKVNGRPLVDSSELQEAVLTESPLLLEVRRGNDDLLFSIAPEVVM

T6: PDZD7_3, Q9H5P4
T6 sequence (Q9H5P4 857-944, limits assumed, looked up): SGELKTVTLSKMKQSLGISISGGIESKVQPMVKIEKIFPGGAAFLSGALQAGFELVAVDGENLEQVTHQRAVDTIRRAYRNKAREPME

T7: APBA1_1, Q02410
T7 sequence (Q02410 651-752, limits assumed, looked up): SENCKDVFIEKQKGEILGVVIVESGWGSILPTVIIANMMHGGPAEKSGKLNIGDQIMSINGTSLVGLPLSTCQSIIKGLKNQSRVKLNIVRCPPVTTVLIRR

T8: LNX2_3, Q8N448
T8 sequence (Q8N448 463-564, limits assumed, looked up): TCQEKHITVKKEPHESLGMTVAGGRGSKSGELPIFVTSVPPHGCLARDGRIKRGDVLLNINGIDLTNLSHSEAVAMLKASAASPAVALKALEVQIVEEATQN

T9: TX1BP3, O14907
T9 sequence (O14907 10-122, limits assumed, looked up): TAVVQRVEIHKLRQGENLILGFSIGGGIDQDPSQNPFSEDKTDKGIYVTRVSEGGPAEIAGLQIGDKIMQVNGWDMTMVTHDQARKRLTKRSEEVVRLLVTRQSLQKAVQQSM

T10: GRIP1_7, Q9Y3R0
T10 sequence (Q9Y3R0 999-1096, limits assumed, looked up): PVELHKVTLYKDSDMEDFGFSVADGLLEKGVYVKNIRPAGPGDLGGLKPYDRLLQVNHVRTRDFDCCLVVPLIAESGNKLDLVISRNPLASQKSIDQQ

T11: SHANK1, Q9Y566
T11 sequence (Q9Y566 658-767, limits assumed, looked up): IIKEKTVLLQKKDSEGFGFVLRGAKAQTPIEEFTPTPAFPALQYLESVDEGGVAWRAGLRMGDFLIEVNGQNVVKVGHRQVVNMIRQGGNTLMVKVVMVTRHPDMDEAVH

T12: APBA1_2, Q02410
T12 sequence (Q02410 742-832, limits assumed, looked up): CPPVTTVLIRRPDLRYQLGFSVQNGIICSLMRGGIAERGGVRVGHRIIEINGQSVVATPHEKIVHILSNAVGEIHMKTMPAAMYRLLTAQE

T13: MPDZ_10, O75970
T13 sequence (O75970 1624-1722, limits assumed, looked up): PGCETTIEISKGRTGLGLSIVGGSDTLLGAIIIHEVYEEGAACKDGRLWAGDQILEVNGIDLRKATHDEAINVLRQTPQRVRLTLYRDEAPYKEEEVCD


Key:
Assay in all cases: holdup assay
Set-up in all cases: key: below the threshold = too weak to quantify, mostly under pKd 3.1 to 4
Conditions in all cases: plain residues with an end cap or a label only (N-terminal biotin on a linker: ado-ado)
GRIP1_3, Q9Y3R0 = biological target: T1, GRIP1_3, Q9Y3R0
SNTB1, Q13884 = biological target: T2, SNTB1, Q13884
GRID2IP_2, A4D2P6 = biological target: GRID2IP_2, A4D2P6
GRID2IP_2, A4D2P6, sequence (A4D2P6 272-370): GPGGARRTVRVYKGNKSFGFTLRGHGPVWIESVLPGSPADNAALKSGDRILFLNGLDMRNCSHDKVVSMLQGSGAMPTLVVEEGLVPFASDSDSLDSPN

FRMPD2_1, Q68DX3 = biological target: FRMPD2_1, Q68DX3
FRMPD2_1, Q68DX3, sequence (Q68DX3 770-861): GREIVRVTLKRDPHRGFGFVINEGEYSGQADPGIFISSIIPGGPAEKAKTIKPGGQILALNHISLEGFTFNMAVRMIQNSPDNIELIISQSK

GRID2IP_1, A4D2P6 = biological target: GRID2IP_1, A4D2P6
GRID2IP_1, A4D2P6, sequence (A4D2P6 1-87): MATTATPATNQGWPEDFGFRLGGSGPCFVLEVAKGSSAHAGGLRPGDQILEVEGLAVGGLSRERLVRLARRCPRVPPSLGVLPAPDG

PARD3_3, Q8TEW0 = biological target: PARD3_3, Q8TEW0
PARD3_3, Q8TEW0, sequence (Q8TEW0 582-685): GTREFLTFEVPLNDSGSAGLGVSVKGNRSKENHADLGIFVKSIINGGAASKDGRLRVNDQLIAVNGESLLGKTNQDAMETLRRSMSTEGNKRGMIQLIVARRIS

MPP7, Q5T2T1 = biological target: T3, MPP7, Q5T2T1
SYNJ2BP, P57105 = biological target: T4, SYNJ2BP, P57105
HTRA3, P83110 = biological target: T5, HTRA3, P83110
PDZD7_3, Q9H5P4 = biological target: T6, PDZD7_3, Q9H5P4
GIPC2, Q8TF65 = biological target: GIPC2, Q8TF65
GIPC2, Q8TF65, sequence (Q8TF65 112-203): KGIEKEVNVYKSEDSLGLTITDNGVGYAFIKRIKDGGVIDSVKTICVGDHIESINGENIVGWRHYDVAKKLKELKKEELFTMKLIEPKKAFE

APBA1_1, Q02410 = biological target: T7, APBA1_1, Q02410
LNX2_3, Q8N448 = biological target: T8, LNX2_3, Q8N448
MAGI3_2, Q5TCQ9 = biological target: MAGI3_2, Q5TCQ9
MAGI3_2, Q5TCQ9, sequence (Q5TCQ9 398-503): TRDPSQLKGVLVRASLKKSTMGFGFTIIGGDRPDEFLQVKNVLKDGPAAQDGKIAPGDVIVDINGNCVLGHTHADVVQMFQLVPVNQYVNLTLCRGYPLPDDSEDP

TX1BP3, O14907 = biological target: T9, TX1BP3, O14907
GRIP1_7, Q9Y3R0 = biological target: T10, GRIP1_7, Q9Y3R0
MAST1, Q9Y2H9 = biological target: MAST1, Q9Y2H9
MAST1, Q9Y2H9, sequence (Q9Y2H9 962-1065): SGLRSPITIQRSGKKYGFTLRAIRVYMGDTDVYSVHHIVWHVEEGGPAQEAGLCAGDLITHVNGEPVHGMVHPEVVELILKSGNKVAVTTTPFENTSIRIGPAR

SHANK1, Q9Y566 = biological target: T11, SHANK1, Q9Y566
Inadl_1, Q8NI35 = biological target: Inadl_1, Q8NI35
Inadl_1, Q8NI35, sequence (Q8NI35 113-229): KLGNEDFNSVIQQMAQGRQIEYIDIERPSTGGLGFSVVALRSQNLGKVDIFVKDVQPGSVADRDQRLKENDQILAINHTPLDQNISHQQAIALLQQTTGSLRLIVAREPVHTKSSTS

NHERF4_4, Q86UT5 = biological target: NHERF4_4, Q86UT5
NHERF4_4, Q86UT5, sequence (Q86UT5 464-550): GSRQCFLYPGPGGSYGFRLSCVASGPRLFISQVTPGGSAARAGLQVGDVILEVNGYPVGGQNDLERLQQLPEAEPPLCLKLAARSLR

APBA1_2, Q02410 = biological target: T12, APBA1_2, Q02410
DLG2_2, Q15700 = biological target: DLG2_2, Q15700
DLG2_2, Q15700, sequence (Q15700 189-283): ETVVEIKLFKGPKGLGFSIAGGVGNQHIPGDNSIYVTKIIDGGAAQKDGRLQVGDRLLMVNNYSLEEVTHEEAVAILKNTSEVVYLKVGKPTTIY

MPDZ_10, O75970 = biological target: T13, MPDZ_10, O75970

Binder	pKd (GRIP1_3, Q9Y3R0)	pKd (SNTB1, Q13884)	pKd (GRID2IP_2, A4D2P6)	pKd (FRMPD2_1, Q68DX3)	pKd (GRID2IP_1, A4D2P6)	pKd (PARD3_3, Q8TEW0)	pKd (MPP7, Q5T2T1)	pKd (SYNJ2BP, P57105)	pKd (HTRA3, P83110)	pKd (PDZD7_3, Q9H5P4)	pKd (GIPC2, Q8TF65)	pKd (APBA1_1, Q02410)	pKd (LNX2_3, Q8N448)	pKd (MAGI3_2, Q5TCQ9)	pKd (TX1BP3, O14907)	pKd (GRIP1_7, Q9Y3R0)	pKd (MAST1, Q9Y2H9)	pKd (SHANK1, Q9Y566)	pKd (Inadl_1, Q8NI35)	pKd (NHERF4_4, Q86UT5)	other results
EGGKKRESEA [APPL1, Q9UKG1]	below the threshold	below the threshold	below the threshold	below the threshold	below the threshold	below the threshold	below the threshold	below the threshold	below the threshold	3.69	below the threshold	below the threshold	below the threshold	below the threshold	below the threshold	below the threshold	4.12	below the threshold	below the threshold	below the threshold	pKd (APBA1_2, Q02410): below the threshold; pKd (DLG2_2, Q15700): below the threshold; pKd (MPDZ_10, O75970): below the threshold
VGIERETDVL [EZH1, Q92800]	below the threshold	4.52	below the threshold	below the threshold	below the threshold	3.67	below the threshold	below the threshold	below the threshold	below the threshold	below the threshold	below the threshold	below the threshold	4	below the threshold	below the threshold	below the threshold	below the threshold	below the threshold	below the threshold	pKd (APBA1_2, Q02410): below the threshold; pKd (DLG2_2, Q15700): below the threshold; pKd (MPDZ_10, O75970): below the threshold
GSSSKEGTSV [RRBP1, Q9P2E9]	below the threshold	3.9	3.76	below the threshold	below the threshold	below the threshold	below the threshold	5.41	below the threshold	4.28	below the threshold	below the threshold	below the threshold	4.51	below the threshold	below the threshold	4.32	below the threshold	below the threshold	3.98	pKd (APBA1_2, Q02410): 4.38; pKd (DLG2_2, Q15700): 3.9; pKd (MPDZ_10, O75970): 3.62
ADRDHASDQL [CTBP1, Q13363]	below the threshold	below the threshold	below the threshold	below the threshold	below the threshold	below the threshold	below the threshold	below the threshold	below the threshold	below the threshold	below the threshold	below the threshold	below the threshold	below the threshold	below the threshold	below the threshold	below the threshold	below the threshold	below the threshold	below the threshold	pKd (APBA1_2, Q02410): below the threshold; pKd (DLG2_2, Q15700): below the threshold; pKd (MPDZ_10, O75970): below the threshold
